According to patent US20230406935A1 (F STAR THERAPEUTICS, published 2023):

Key:
[1] = target: T1, Human PD-L1 expressed on cells (human, UniProt Q9NZQ7 19-290); experiment: cell-based or functional assay
[2] = target: T1, Human PD-L1 expressed on cells; experiment: cell-based or functional assay; remark: listed apart in the source

T1 sequence (Q9NZQ7 19-290 limits assumed): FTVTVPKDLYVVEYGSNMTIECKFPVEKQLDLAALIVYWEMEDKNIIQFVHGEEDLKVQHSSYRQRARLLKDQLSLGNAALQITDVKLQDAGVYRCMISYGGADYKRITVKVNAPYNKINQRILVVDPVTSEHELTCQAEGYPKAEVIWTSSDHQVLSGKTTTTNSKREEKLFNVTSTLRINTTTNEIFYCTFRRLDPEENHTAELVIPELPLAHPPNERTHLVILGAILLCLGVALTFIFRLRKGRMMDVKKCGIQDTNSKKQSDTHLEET

B1: FS17-33-548AA/MSL109 (bispecific antibody, human IgG1, kappa, L234A L235A)
heavy: EEQVLESGGGLVKPGGSLRLSCAASGFTFSPYSVFWVRQAPGKGLEWVSSINSDSTYKYYADSVKGRFTISRDNAENSIFLQMNSLRAEDTAVYYCARDRSYYAFSSGSLSDYYYGLDVWGQGTTVIVSSASTKGPSVFPLAPSSKSTSGGTAALGCLVKDYFPEPVTVSWNSGALTSGVHTFPAVLQSSGLYSLSSVVTVPSSSLGTQTYICNVNHKPSNTKVDKKVEPKSCDKTHTCPPCPAPEAAGGPSVFLFPPKPKDTLMISRTPEVTCVVVDVSHEDPEVKFNWYVDGVEVHNAKTKPREEQYNSTYRVVSVLTVLHQDWLNGKEYKCKVSNKALPAPIEKTISKAKGQPREPQVYTLPPSRDEEGYWVSLTCLVKGFYPSDIAVEWESNGEPQYWAKTTPPVLDSDGSFFLYSKLTVSNWRWQLGDVFSCSVMHEALHNHYTQKSLSLSPGK
light: DIVMTQSPLSLSVTPGEPASISCRSSQSLLHTNGYNYLDWYVQKPGQSPQLLIYLASNRASGVPDRFSGSGSGTDFTLKISRVETEDVGVYYCMQALQIPRTFGQGTKVEIKRTVAAPSVFIFPPSDEQLKSGTASVVCLLNNFYPREAKVQWKVDNALQSGNSQESVTEQDSKDSTYSLSSTLTLSKADYEKHKVYACEVTHQGLSSPVTKSFNRGEC
- SEB EC50 [1]: 3.21 nM

B2: Fcab FS17-33-116 (designed binder)
chain: TCPPCPAPELLGGPSVFLFPPKPKDTLMISRTPEVTCVVVDVSHEDPEVKFNWYVDGVEVHNAKTKPREEQYNSTYRVVSVLTVLHQDWLNGKEYKCKVSNKALPAPIEKTISKAKGQPREPQVYTLPPSRDESGYWVSLTCLVKGFYPSDIVVEWESNGEPQYWAKTTPPVLDSDGSFFLYSKLTVSNWRWQMDDFSCSVMHEALHNHYTQKSLSLSPGK
- SEB assay EC50 [2]: 0.0753 nM
